In experiment [1] the target is T1, IgE-Fc(N265Q,N371Q) (human, UniProt P01854).
T1 chain: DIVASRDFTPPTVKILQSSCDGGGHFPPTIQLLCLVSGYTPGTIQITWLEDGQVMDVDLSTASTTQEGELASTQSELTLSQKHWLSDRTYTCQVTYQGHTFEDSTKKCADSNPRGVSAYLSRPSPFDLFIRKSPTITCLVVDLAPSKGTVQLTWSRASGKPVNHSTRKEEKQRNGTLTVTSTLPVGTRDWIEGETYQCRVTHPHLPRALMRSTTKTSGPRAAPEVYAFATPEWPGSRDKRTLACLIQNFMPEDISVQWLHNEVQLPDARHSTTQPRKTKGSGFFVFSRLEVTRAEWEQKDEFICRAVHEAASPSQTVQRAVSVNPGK
Description: stopped-flow fluorescence.

For experiment [2], the target named is T1, IgE-Fc(N265Q,N371Q). Description: ITC.
Experiment [3] concerns the target T1, IgE-Fc(N265Q,N371Q). Description: ITC.
Experiment [4] deals with T1, IgE-Fc(N265Q,N371Q). Description: SPR. In general terms: In SPR one partner is held on a chip, and binding of the other changes the refractive index at the surface.

B1: anti-ε-chain Fab (aεFab), anti-human IgE-Fc antibody in human IgG1 Fab format (Fab, V domains shown)
VH: QVQLQQSGPGLVKPSQTLSLTCGISGDSVSSNSAAWNWLRQSPSRGLEWLGRTYYRSKWYNDYAVSMKSRITINPDTSRNQFSLQLNSVTPEDTAVYYCARDGEISYDYYYYGMDVWGRGTLVTVSS
VL: QSVLTQPPSASGTPGQRVTISCSGSSSNIGNNGVNWYQQVPGKPPKLLIYYDDLLPSGVSDRFSGSKSGTSASLAISGLQSEDEADYYCEAWDDSLDGVVFGGGTKLTVL
As a reminder, the kon is the second-order rate constant of association. A higher kon goes with faster complex formation. The term Kd denotes the constant that tells how readily two partners part at equilibrium. High values mean lower affinity, low ones higher affinity. Regarding B1, the on-rate (kon) in experiment [1] came out at 670000 M⁻¹ s⁻¹. Besides, in experiment [2], the “dH1 (first site)” value is -3.5 ± 0.1 kcal/mol and the “dH2 (second site)” value was -1.3 ± 0.1 kcal/mol. For the same molecule, in experiment [3], the Kd is 40 ± 20 nM and the dH is -3.5 ± 0.1 kcal/mol. Moreover, the Kd in experiment [4] worked out at 95 nM.

Values taken from PMC3977038 (Nature structural & molecular biology, 2014).
